The text below walks through data of the supplement of paper PMC7877785.

The data set in a line: self-splicing fitness, log relative to wild type (ln ratio); higher = more splicing; Tetrahymena group I intron in knt gene, E. coli kanamycin selection, DiMSum; sequences stand for … in CUCUCU…GGAGGGAAAAGUUAUCAGGCAUGCACCUGGUAGCUAGUCUUUAAACCAAUAGAUUGCAUCGGUUUAAAAGGCAAGACCGUCAAAUUGCGGGAAAGGGGUCAACAGCCGUUCAGUACCAAGUCUCAGGGGAAACUUUGAGAUGGCCUUGCAAAGGGUAUGGUAAUAAGCUGACGGACAUGGUCCUAACCACGCAGCCAAGUCCUAAGUCAACAGAUCUUCUGUUGAUAUGGAUGCAGUUCACAGACUAAAUGUCGGUCGGGGAAGAUGUAUUCUUCUCAUAAGAUAUAGUCGGACCUCUCCUUAAUGGGAGCUAGCGGAUGAAGUGAUGCAACACUGGAGCCGCUGGGAACUAAUUUGUAUGCGAAAGUAUAUUGAUUAGUUUUGGAGUACUCGUGGUCG
In outline: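 Colonies from six replicate transformations of E. coli BL21(DE3) were pooled and amplicon-sequenced on an Illumina HiSeq 2500. The library placed an intron with all eight P1ex-region nucleotides randomised inside the knt kanamycin-resistance gene on pET-22b(+), and cells grew overnight at 37°C or 30°C on LB agar with or without 25 μg/mL kanamycin (plus 100 μg/mL carbenicillin, 50 μM IPTG, 0.2% rhamnose). Fitness is the DiMSum error-weighted combination of wild-type-normalised replicate fold changes, kanamycin versus none.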

± gives the uncertainty stated by the source.

Regarding CAAUAGCAAUAUUACGUGUA, the “self-splicing fitness (ln)” value is -3.98 ± 0.18 (30 °C) and -2.29 ± 0.11 (37 °C).
On to CAAUAGCAAUAUUACGUUAG, for which the “self-splicing fitness (ln)” value is -1.44 ± 0.057 (30 °C) and -0.481 ± 0.074 (37 °C).
As for CAAUAGCAAUAUUACGUUGU, the “self-splicing fitness (ln)” value was -3.27 ± 0.14 (30 °C) and -2.12 ± 0.17 (37 °C).
As for CACAAGCAAUAUUACGAAUA, the “self-splicing fitness (ln)” value was -2.08 ± 0.27 (30 °C) and -2.71 ± 0.23 (37 °C).
For CACAAGCAAUAUUACGAAUU the same measures were -3.63 ± 0.26 and -2.75 ± 0.21.
As to CACAAGCAAUAUUACGACGU, the “self-splicing fitness (ln)” value is -2.15 ± 0.086 (30 °C) and -0.614 ± 0.077 (37 °C).
For the sequence CACAAGCAAUAUUACGACUC, the “self-splicing fitness (ln)” value reads like this: (30 °C) -1.97 ± 0.11; (37 °C) -0.998 ± 0.12.
Consider CACAAGCAAUAUUACGAGUU, for which the “self-splicing fitness (ln)” value by setting is: (30 °C) -2.91 ± 0.11; (37 °C) -1.13 ± 0.089.
In the case of CACAAGCAAUAUUACGAUAG, the “self-splicing fitness (ln)” value runs as follows: (30 °C) -0.655 ± 0.046; (37 °C) 0.242 ± 0.062.
CACAAGCAAUAUUACGAUAU: the “self-splicing fitness (ln)” value by setting is: (30 °C) -3.34 ± 0.21; (37 °C) -2.52 ± 0.15.
As for CACAAGCAAUAUUACGAUCC, the “self-splicing fitness (ln)” value (30 °C) was -2.35 ± 0.21 and the “self-splicing fitness (ln)” value (37 °C) was -1.45 ± 0.23.
On to CACAAGCAAUAUUACGCAAU, for which the “self-splicing fitness (ln)” value was -3.31 ± 0.23 (30 °C) and -3.31 ± 0.26 (37 °C).
With CACAAGCAAUAUUACGCACC, the “self-splicing fitness (ln)” value runs as follows: (30 °C) -3.98 ± 0.37; (37 °C) -2.4 ± 0.3.
CACAAGCAAUAUUACGCCAA: the “self-splicing fitness (ln)” value reads like this: (30 °C) -2.76 ± 0.27; (37 °C) -2.01 ± 0.21.
In the case of CACAAGCAAUAUUACGCCAG, the “self-splicing fitness (ln)” value was -1 ± 0.08 (30 °C) and -1.09 ± 0.11 (37 °C).
For CACAAGCAAUAUUACGCCUA the same measures were -1.01 ± 0.091 and -0.204 ± 0.085.
Turning to CACAAGCAAUAUUACGCUGG, the “self-splicing fitness (ln)” value (30 °C) was -4.18 ± 0.23 and the “self-splicing fitness (ln)” value (37 °C) was -1.74 ± 0.14.
For CACAAGCAAUAUUACGCUUC the same measures were -3.67 ± 0.18 and -2.59 ± 0.27.
For CACAAGCAAUAUUACGGAAC the same measures were -4.35 ± 0.24 and -3.71 ± 0.25.
As to CACAAGCAAUAUUACGGACU, the “self-splicing fitness (ln)” value reads like this: (30 °C) -2.54 ± 0.14; (37 °C) -2.11 ± 0.14.
Turning to CACAAGCAAUAUUACGGCAA, the “self-splicing fitness (ln)” value reads like this: (30 °C) -2.21 ± 0.1; (37 °C) -1.55 ± 0.089.
As for CACAAGCAAUAUUACGGGGG, the “self-splicing fitness (ln)” value was -3.12 ± 0.11 (30 °C) and -2.1 ± 0.11 (37 °C).
For the sequence CACAAGCAAUAUUACGGUGC, the “self-splicing fitness (ln)” value (30 °C) was -3.25 ± 0.2 and the “self-splicing fitness (ln)” value (37 °C) was -2.72 ± 0.24.
With CACAAGCAAUAUUACGUAAU, the “self-splicing fitness (ln)” value is, setting by setting: (30 °C) -3.79 ± 0.14; (37 °C) -1.65 ± 0.1.
CACAAGCAAUAUUACGUAUU: the “self-splicing fitness (ln)” value is -3.81 ± 0.17 (30 °C) and -2.66 ± 0.15 (37 °C).
For CACAAGCAAUAUUACGUCUG the same measures were -1.34 ± 0.07 and -0.0931 ± 0.074.
Turning to CACAAGCAAUAUUACGUGCG, the “self-splicing fitness (ln)” value (30 °C) is -2.32 ± 0.098 and the “self-splicing fitness (ln)” value (37 °C) was -0.908 ± 0.082.
On to CACAAGCAAUAUUACGUUUA, for which the “self-splicing fitness (ln)” value by setting is: (30 °C) -2.95 ± 0.15; (37 °C) -1.95 ± 0.13.
As to CACCAGCAAUAUUACGAAAA, the “self-splicing fitness (ln)” value was -3.1 ± 0.2 (30 °C) and -2.33 ± 0.2 (37 °C).
For CACCAGCAAUAUUACGAAGC the same measures were -3.27 ± 0.15 and -2 ± 0.14.
With CACCAGCAAUAUUACGAAGG, the “self-splicing fitness (ln)” value (30 °C) was -1.1 ± 0.046 and the “self-splicing fitness (ln)” value (37 °C) is -0.304 ± 0.077.
As for CACCAGCAAUAUUACGACGA, the “self-splicing fitness (ln)” value runs as follows: (30 °C) -2.13 ± 0.14; (37 °C) -1.54 ± 0.12.
As to CACCAGCAAUAUUACGACUA, the “self-splicing fitness (ln)” value reads like this: (30 °C) -0.763 ± 0.12; (37 °C) -1.3 ± 0.17.
As to CACCAGCAAUAUUACGAUAU, the “self-splicing fitness (ln)” value was -3.22 ± 0.17 (30 °C) and -2.46 ± 0.2 (37 °C).
With CACCAGCAAUAUUACGAUCU, the “self-splicing fitness (ln)” value by setting is: (30 °C) -4.3 ± 0.23; (37 °C) -2.43 ± 0.15.
For the sequence CACCAGCAAUAUUACGAUGC, the “self-splicing fitness (ln)” value reads like this: (30 °C) -2.96 ± 0.13; (37 °C) -2.06 ± 0.14.
As for CACCAGCAAUAUUACGAUUC, the “self-splicing fitness (ln)” value (30 °C) is -2.18 ± 0.094 and the “self-splicing fitness (ln)” value (37 °C) was -2.32 ± 0.18.
